From the DeepSol protein solubility set

Assay: soluble on expression in E. coli; label from the status in PepcDB or PDB records

TLWPREVEGGQGKPSHGCRAASKARLEAKPANSPFPSHPSLAHITQFRMMVSLGHLAKGASLDDLIDSCIQSFDADGNLCRSNQLLQVMLTMHRIVISSAELLQKVITLYKDALAKNSPGLCLKICYFVRYWITEFWVMFKMDASLTDTMEEFQELVKAKGEELHCRLIDTTQINARDWSRKLTQRIKSNTSKKRKVSLLFDHLEPEELSEHLTYLEFKSFRRISFSDYQNYLVNSCVKENPTMERSIALCNGISQWVQLMVLSRPTPQLRAEVFIKFIQVAQKLHQLQNFNTLMAVIGGLCHSSISRLKETSSHVPHEINKVLGEMTELLSSSRNYDNYRRAYGECTDFKIPILGVHLKDLISLYEAMPDYLEDGKVNVHKLLALYNHISELVQLQEVAPPLEANKDLVHLLTLSLDLYYTEDEIYELSYAREPRNHRAPPLTPSKPPVVVDWASGVSPKPDPKTISKHVQRMVDSVFKNYDHDQDGYISQEEFEKIAASFPFSFCVMDKDREGLISRDEITAYFMRASSIYSKLGLGFPHNFQETTYLKPTFCDNCAGFLWGVIKQGYRCKDCGMNCHKQCKDLVVFECKKRAKNPVAPTENNTSVGPVSNLCSLGAKDLLHAPEEGPFTFPNGEAVEHGEESKDRTIMLMGVSSQKISLRLKRAVAHKATQTESQPWIGSEGPSGPFVLSSPRKTAQDTLYVLPSPTSPCPSPVLVRKRAFVKWENKDSLIKSKEELRHLRLPTYQELEQEINTLKADNDALKIQLKYAQKKIESLQLEKSNHVLAQMEQGDCS
soluble on expression in E. coli: soluble

AHHHHHHGSKIATIVGARPQFIKMAPVSRELRKYFEEVVIHTGQHYDYEMDRIFFEQLNIPEPDYNLGVGSGSHGYQIGEMLKKIEEVLIKEKPDLVMVFGDTNSTLAGALAAAKLKIKVAHVEAGLRSFDKSMPEEINRILTDHVSDYLFAPTETAVKNLYNEGIRNGVYLTGDVMLDALLYNVKIAERCSEILNKLGLKPKEFCLATVHRAENTDNLERLKNIIDAFVECKETIVFPVHPRTEKVLKAYGLYDSLKKAENVILIKPVGYLDMLMLEKNAKKILTDSGGVQKEAYFLKVPCITLRERTEWVETVEDGWNVLVGADKEKILRAVREFEPSGETYTYKFGDGRASEKIAEVIKNVDR
soluble on expression in E. coli: not soluble

MGSDKIHHHHHHMPETIKNISKKDAILKAALQLFSHRSFDGTTIPEIARVANVGAGTIYRYFISKEDLVNELFVRVLDDFTEHLQVGLHGQMDTRTRFHHLFNNAWNYVMNNVEAFLFINLNDEATYLNDRSRKSFSRMWDYIAEMVEQGADKGELIKLDPKFVASLVYGPLIPISKRFNNDNRQASQALAKALEEATWRAISTD
soluble on expression in E. coli: not soluble

MVEKPKDIKIAQESFPILVAENIYHCGYHSEKSYGAASYLIQHSQGNILVDSPRFTPPLVKRIEAMGGIKYMYLTHQDDVADHQKFAEHFQCQRILHTDEISAGTRNVEIQLTGLEPFPLQPDVLIIPVPGHTKGHTVLLYKNKFLFTGDHLAWSENRHQLTAFRDVCWYSWAEQIKSMRRLADYSFDWVLPGHGRRFHADVETMRQQMHKCIELMTDERQPLTFNSLEHHHHHH
soluble on expression in E. coli: soluble

MFRMPIVTMERVDSFSAAHRLHSEKLSDAENKETFGKCNNSNGHGHNYVWKVKLRGEVDPTSGMVYDLAKLKKEMSLVLDTVDHRNLDKDVEFFKTTVSTSENVAIYMFEKLKSVMSNPSVLYKVTIEETPKNIFTYKGS
soluble on expression in E. coli: soluble

MRLFKRYTPSMIAKHISRLFKGRIYIYGVGRFEFDNGKLILPEKAEQRHFRAVKEINQEIMKLRCAYALEHHHHHH
soluble on expression in E. coli: not soluble

MGSDKIHHHHHHMKQYGEKFIDEFSKAEFEKLAKQGQLIDVRTEEEYALGHINGSILHPVDEIESFNKEKNKTYYVICRSGNRSANASKYLAKQGYNVINLDGGYKAYEENDSYDTQEEYKSIEIKADRKQFNYRGFQCPGPIVKISQEMKNIEVGDQIEVKVTDPGFPSDIKSWVKQTRHTLVKLDENNNGINAIIQKEKAKDLDINYSAKGTTIVLFSGELDKAVAALIIANGARAAGKDVTIFFTFWGLNALKKVQTVNVKKQGIAKMFDLMLPQKNIRMPLSKMNMFGLGNMMMRYVMKKKNVDSLPTLINQAIEQNIKLIACTMSMDVMGIQKEELRDEVEYGGVGTYIGATENANHNLFI
soluble on expression in E. coli: not soluble

MTVTSSAAIDIGGGGGGRRSDRLDSDRTSEDMSFIASPANESFQIGASFVDVQNESSGSIDTATATLHELNYTFGMPPVTEESENMPQNYETVVELLPGEERAPINKLTEFPIEGGSLFVTNFRIVVILKDKEVEEALRFLVFPLQDIEQIDLAIPAFIHLSLKIGRMFTICFKTAEDAALVHKILYTAFQRLNRPISSIYTSRPQDWTSKNTDNPMQSLNAFAWKFSEAVDELDRDGKLPSWLLRADSVAQEITHIDFNRLGMSEHFQISSVNENFEVCPTYPEKIIVPKGITDDDIRKGAPYRSIGRFPAVIWRCRKTRAVLMRSSQPQVGILSWRNPTDEKIIEEAVKASRIEGEEKKQFIIMDARGYTSAFANRARSGGFENTEYYQQAKLEFLGLPNIHAVRGSFNNVRTMLHNLGPNEQLLTSLQTTGWLLNLSNLLVNAANCADHLSKGHSVLVHCSDGWDRTTQVTTLAKIMLDEYYRTVKGFEELIRRDWIAFGHKLYDRQLVAFGNWGTSDERSPVFLQFLEAVRHLQREQPTLFQFTHAYLIKLAKHAYSGLFGSFLFNSHKERREAMEKCKGTLVDIWRFIGPHNEEYVNQSFDEHYTGAVKPVNVSVINLRVWHEVFADEEEHYTQIFSPKEERPLSGCTTPMNTSTSTNLVKSKSSESINSLNVDGSAKESSQQHPTCSTTPSDNTNSLPMSTSFIQQSLYQPKVRGVAAIDRDGVIRFEDDEQAMLRKKNKLRAEEIRRKDEKIEELRRRAVLDTNKVSPGQRQSYSESDVETTGTLERVMSDVSMVDPVNELPHFKPNTTWEGESGHCAYCKKEFNKLSVYVEDRQHHCRNCGRVVCEDCSKNRFSVIEEGKSVQKRACDSCYDSMHETDLKLSSSSTTTTSSSTKIENDSNVPGLDNNSDNVSENVSENAIPDIIVEEKEAEDPIKEAESPSKETKCPKTLRNFISFSPKSSMRKNKVHSRDPLKSIDEGSSSQQAESDDVLDVNEQPL
soluble on expression in E. coli: not soluble

MTSIEWDEKTFTKFAYLSDPRTRKNLVAYVLTKANLESNKYENTIVIENLEDGSRKFIEDASMPRISPDGKKIAFMRFNEEKKTAQIWVADLKTLSAKKVLEAKNIRSIEWNQDSRRLLAVGFKRREDEDFIFEDDVPAWFDNMGFFDGEKTTFWVIDTEGEEVIEQFEKPRFSSGIWHGDSIVVSVPHRDVIPRYFKYWDIYLWKDGEEEKLFEKVSFYAIDSDGERILLYGKPEKKYVSEHDKIYIYDGEVKGILDDIDREVAQAKIRNGKVYFTLFEEGSVNLYLWDGEVREIAKGKHWIMGFDADERLIYLKETATRPAELYLWDGEERQLTDYNGLIFKKLKTFEPRHFRFKSIDLELDGWYIKPEIKEGEKAPVIVFVHGGPKGMYGYYFKYEMQLMASKGYYIVYVNPRGSNGYSEDFALRVLERTGLEDFQDILNGIEEFLRLEPQADRERIGITGISYGGYMTNWALTQSDLFKAGISENGISYWLTSYAFSDIGLWFDKEVIGDNPLENENYRKLSPLFYAKNVKAPLLLIHSLEDYRCPLDQSLMFYHVLKDLGKEVYIAIFKKGAHGHSIRGSPRHRMKRYKLFMEFFERKLKKYEEGFDVEKILKEEKK
soluble on expression in E. coli: soluble

MGSDKIHHHHHHMNPVTHKAVLLLRPGKSPDDFTQQLRKTGRECFVHSFIEIEPLPVNKEQLTQIKQKHWDGIVIVSKNAAHYASRAGFSGVPSKYYAVGPGTASFACKHLNTAVSCPAFIHQSEGLLELSELQKLQQQNWLIIRGEGGRELLADAIRARGASVDYWEVYRRKQLTLNDPELIQQWISSVGTIVVTSAEQLGYFLSSMPNSAQSWLDSCQWIVPSHRLKGLIPFGQSDNIKVTGSAADAILMNALIADGKTHD
soluble on expression in E. coli: not soluble

MYDYGTFAFASKADVLDQAKAFWNPDKTQFWTDSGVDLVIDRREGYFLWDMSGRRLIDLHLNGGTYNIGHRNPEVMQAISEGMAHFDVGNHHFPSVARTALAKRLVETAPASIKKVAFGSGGGEAIDIALKSARHGTQRRKIVSVIKAYHGHTGLAVATGDDRFAKLFLADRPDEFIQVPFGDIGAMEAALAGGDVAAVIMETIPATYGFPLPPPGYLEAVKALTERHGTLYIADEVQTGLMRTGELWGITKHGIDPDIIVTGKGLSGGMYPISAVLLGERAARWLDQDGFGHISTFGGAELGCVAAIKTLEICTRPEVRSMVHYIADIFDTGLRRIQADYPDWFVGIRQNGVVIGLEFDHPEGAKFVMRELYENGVWAIFSTLDPRVLQFKPGLLLSRELCEDVLDRLEVAVGRARATVTGRRNG
soluble on expression in E. coli: not soluble
